Measurements reported in IntAct's records for PubMed 11454208.

B1: Transcriptional repressor OPI1 (Saccharomyces cerevisiae), P21957 (parent)
chain: MSENQRLGLSEEEVEAAEVLGVLKQSCRQKSQPSEDVSQADKMPASESSTTPLNILDRVSNKIISNVVTFYDEINTNKRPLKSIGRLLDDDDDEHDDYDYNDDEFFTNKRQKLSRAIAKGKDNLKEYKLNMSIESKKRLVTCLHLLKLANKQLSDKISCLQDLVEKEQVHPLHKQDGNARTTTGAGEDETSSDEDDDDEEFFDASEQVNASEQSIVVKMEVVGTVKKVYSLISKFTANSLPEPARSQVRESLLNLPTNWFDSVHSTSLPHHASFHYANCEEQKVEQQQQQQQQQQQQQLLQQQLLQQQQQKRNKDGDDSASPSSSVTANGKVLILAKESLEMVRNVMGVVDSTLGKAEEWVKQKQEVKEMIRERFLQQQQQYRQQQQKDGNYVKPSQDNVDSKD
partner: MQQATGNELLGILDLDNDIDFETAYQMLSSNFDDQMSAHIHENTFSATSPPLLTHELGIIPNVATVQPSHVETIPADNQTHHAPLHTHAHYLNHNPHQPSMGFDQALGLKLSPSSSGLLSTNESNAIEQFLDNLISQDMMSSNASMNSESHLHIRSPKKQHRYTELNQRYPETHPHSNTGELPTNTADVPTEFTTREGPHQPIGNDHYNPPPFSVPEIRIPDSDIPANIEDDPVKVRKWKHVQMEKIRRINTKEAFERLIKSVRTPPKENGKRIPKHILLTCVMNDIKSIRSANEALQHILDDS

Variants of: B1
Details: with ino2_yeast INO2, P26798

Row | effect of a mutation on the interaction | Variant
1 | decreasing interaction | L160A
